The results in this text go back to article PMC12288466, “EzrA promotes Z-ring formation through interaction of its QNR motif with FtsA” (Journal of Bacteriology, 2025).

Assay [1] deals with FtsA of S. suis, bacterial two-hybrid fusion (UniProt A0A0H3MTL7). The assay is described as follows: bacterial two-hybrid, β-galactosidase activity. The settings on record: cultured at 30°C for 16 h; parent: est. 300; read off a plot.
Assay [2] concerns the target FtsA of E. faecalis, bacterial two-hybrid fusion (UniProt O07111). The assay can be described thus: bacterial two-hybrid, β-galactosidase activity. The settings on record: cultured at 30°C for 16 h; parent: est. 42; read off a plot.
Assay [3] concerns the target FtsA of S. pneumoniae, bacterial two-hybrid fusion (UniProt A0A0H2ZPT5). The assay is described as follows: bacterial two-hybrid, β-galactosidase activity. The settings on record: cultured at 30°C for 16 h; parent: est. 110; read off a plot.
Assay [4] concerns the target FtsA of B. subtilis, bacterial two-hybrid fusion (UniProt P28264). The assay is described as follows: bacterial two-hybrid, β-galactosidase activity. The settings on record: cultured at 30°C for 16 h; parent: est. 270; read off a plot.
In assay [5] the target is T1, his-tagged FtsA protein (Streptococcus suis, UniProt A0A0H3MTL7 1-459).
T1 chain: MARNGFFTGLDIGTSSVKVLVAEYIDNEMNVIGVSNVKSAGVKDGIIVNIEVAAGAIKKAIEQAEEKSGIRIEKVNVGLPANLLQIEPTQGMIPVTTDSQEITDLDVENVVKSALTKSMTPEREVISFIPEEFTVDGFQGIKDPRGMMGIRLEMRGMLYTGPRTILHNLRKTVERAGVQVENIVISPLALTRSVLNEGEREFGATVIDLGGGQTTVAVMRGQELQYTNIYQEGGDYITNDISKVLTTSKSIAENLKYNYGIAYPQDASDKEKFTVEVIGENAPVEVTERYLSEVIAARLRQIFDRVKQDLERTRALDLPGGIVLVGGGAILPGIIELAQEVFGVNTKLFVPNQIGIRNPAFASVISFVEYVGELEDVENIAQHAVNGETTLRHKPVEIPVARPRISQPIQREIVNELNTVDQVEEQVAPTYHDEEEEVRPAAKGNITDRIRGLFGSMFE
The assay can be described thus: SPR; equilibrium (steady-state) fit. On the technique in general: Surface plasmon resonance follows binding to a sensor surface in real time, without labels.

The target in assay [6] is T2, his-tagged FtsA protein (Streptococcus suis, UniProt A0A0H3MTL7 1-459).
T2 construct: FtsA of Streptococcus suis, locus SSU05_0480; It was purified 'in the same way but without the SUMO cleavage step'; source: E. coli BL21 (DE3), pET28a, purified (Ni-NTA)
T2 sequence (looked up): T1 chain
The assay can be described thus: SPR; Biacore T200; FtsA covalently immobilised on a CM5 chip (700 RU); EzrA_(cyto) or its variant injected at 200 to 3.125 µM in twofold dilutions, 30 µL/min, 25°C; equilibrium response fitted to a 1:1 binding model. The settings on record: both partners purified.

In assay [7] the target is T1, his-tagged FtsA protein. The assay can be described thus: SPR; kinetic fit.

Sequence of FtsA of E. faecalis, bacterial two-hybrid fusion (O07111 whole entry, the tested form may be a part): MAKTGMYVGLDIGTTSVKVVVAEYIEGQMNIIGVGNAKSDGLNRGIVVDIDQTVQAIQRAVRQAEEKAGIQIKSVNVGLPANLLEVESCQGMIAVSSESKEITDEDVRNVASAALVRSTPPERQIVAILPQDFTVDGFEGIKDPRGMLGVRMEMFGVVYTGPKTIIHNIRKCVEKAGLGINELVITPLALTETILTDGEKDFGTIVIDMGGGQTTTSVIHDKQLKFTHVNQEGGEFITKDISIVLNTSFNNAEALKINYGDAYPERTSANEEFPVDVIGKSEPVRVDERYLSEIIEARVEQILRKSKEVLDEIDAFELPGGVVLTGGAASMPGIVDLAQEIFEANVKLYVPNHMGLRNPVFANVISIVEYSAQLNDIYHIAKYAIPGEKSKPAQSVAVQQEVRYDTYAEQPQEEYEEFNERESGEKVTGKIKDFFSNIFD
Sequence of FtsA of S. pneumoniae, bacterial two-hybrid fusion (A0A0H2ZPT5 whole entry, the tested form may be a part): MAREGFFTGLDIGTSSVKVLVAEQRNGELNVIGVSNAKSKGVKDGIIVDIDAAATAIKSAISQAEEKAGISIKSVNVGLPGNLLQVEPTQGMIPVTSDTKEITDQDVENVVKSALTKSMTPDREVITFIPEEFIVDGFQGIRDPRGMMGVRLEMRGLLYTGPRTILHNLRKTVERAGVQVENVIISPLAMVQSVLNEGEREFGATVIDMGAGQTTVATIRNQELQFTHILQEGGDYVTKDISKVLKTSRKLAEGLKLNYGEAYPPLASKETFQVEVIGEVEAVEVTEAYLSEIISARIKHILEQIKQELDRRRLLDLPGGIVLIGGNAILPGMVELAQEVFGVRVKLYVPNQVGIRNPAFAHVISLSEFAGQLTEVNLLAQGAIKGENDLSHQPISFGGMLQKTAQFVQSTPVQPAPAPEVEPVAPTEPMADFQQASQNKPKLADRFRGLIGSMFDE
Sequence of FtsA of B. subtilis, bacterial two-hybrid fusion (P28264 whole entry, the tested form may be a part): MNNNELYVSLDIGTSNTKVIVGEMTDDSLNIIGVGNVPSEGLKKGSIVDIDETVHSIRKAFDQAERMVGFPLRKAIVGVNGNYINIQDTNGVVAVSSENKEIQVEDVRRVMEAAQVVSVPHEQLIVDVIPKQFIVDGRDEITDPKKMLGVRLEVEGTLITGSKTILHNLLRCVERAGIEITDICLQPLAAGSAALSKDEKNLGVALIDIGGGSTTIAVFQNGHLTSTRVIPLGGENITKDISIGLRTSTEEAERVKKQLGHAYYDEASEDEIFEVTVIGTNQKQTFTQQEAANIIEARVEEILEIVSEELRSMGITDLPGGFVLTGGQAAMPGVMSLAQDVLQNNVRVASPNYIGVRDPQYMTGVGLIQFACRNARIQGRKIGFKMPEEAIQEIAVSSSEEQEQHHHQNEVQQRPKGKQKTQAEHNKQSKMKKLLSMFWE

With “EzrA of S. suis, bacterial two-hybrid fusion R514D”, the response in assay [1] was determined as 50 rel.U. Regarding “EzrA of Enterococcus faecalis, bacterial two-hybrid fusion (from UniProt Q838R5) QND”, the response in assay [2] came out at 25 rel.U. For the molecule “EzrA of S. pneumoniae, bacterial two-hybrid fusion R515D”, the response in assay [3] worked out at 21 rel.U. Regarding “EzrA of B. subtilis, bacterial two-hybrid fusion (from UniProt O34894) QND”, in assay [4], the response stood at 38 rel.U.

B1: cytoplasmic region of EzrA protein of S. suis (domain or fragment, Streptococcus suis, UniProt A4VWI6 27-574, looked up)
chain: RKRNDNLLVALEERKEELFNLPVNEEVETVKALHLIGQSQVSFREWNQKWVDLSLNSFADIENHIFEAEGYNNAFRFVSAKNAIDSIDSQIDLIEEDIASIRQGLMELKEQEEKNSGRVKHALNLFDSLQEAVRENPDSYGETLSELEKQLKNIEVEFSEFVMLNSSGDPIEASEILDKTEEHMIALNQIMDRIPSLIERVTKDFPEQLEDLESGYRKLVEQNYLFTEANIESQFQNIRVSIRENTALIVSFDLDAAEAENEGIQAKIDHLYKVFNREIEANKEAVKISKNLPKFLEHVVQNTQLLDEESQRLNATYLLADSKLSRINQLKARLESIEIVVTESVEDIENPQVAYSILEERLDHSLASLKEIEEEQLVLADYLKSQELSENTARKKATLYINKLHTLKRYMEKRNLPGIPAEFLTNFFRTSDHVEALIAELDYKRINIEVVNRLLENATYDMNQLEELAYLIVQNATLTEQLLQYSNRYRSFDESVQKAFNRSLSIFEKDFDYQAAFEEISFALETVEPGVTERFVRSYEKTREAIRY
notes: EzrA of Streptococcus suis, locus SSU05_1509, cytoplasmic region; also called EzrA_(cyto); source: E. coli BL21 (DE3), pET28a, purified (Ni-NTA, SUMO protease cleavage); not shown: His-SUMO, C-terminal, cleaved
For orientation: Kd means the constant that tells how readily two partners part at equilibrium. A low value points to tighter binding. With B1, the values for the Kd in assay [5] and in assay [7] were 37.2 nM and 1.91 nM, respectively. The “fold binding affinity against EzrA^R514D” value in assay [6] is no less than 10 fold.
